Measured values as given in US7119182 (University of California, dated 2006).
Numbered stars: 1 amine (or outer) side, 2 acyl side, 3 side chain; on linkers, the order of the positions; unused ones are H or OH. Square brackets hold non-standard residues; d marks the D form. Ends that are not written are not given here. SMeCys = S-methylcysteine, CSC[C@H](N[*:1])C(=O)[*:2]; Tic = O=C(O)[C@@H]1Cc2ccccc2CN1; Cha = N[C@@H](CC1CCCCC1)C(=O)O; Phg = N[C@H](C(=O)O)c1ccccc1

T1: human thrombin receptor (human, UniProt P25116 42-425)
T1 chain: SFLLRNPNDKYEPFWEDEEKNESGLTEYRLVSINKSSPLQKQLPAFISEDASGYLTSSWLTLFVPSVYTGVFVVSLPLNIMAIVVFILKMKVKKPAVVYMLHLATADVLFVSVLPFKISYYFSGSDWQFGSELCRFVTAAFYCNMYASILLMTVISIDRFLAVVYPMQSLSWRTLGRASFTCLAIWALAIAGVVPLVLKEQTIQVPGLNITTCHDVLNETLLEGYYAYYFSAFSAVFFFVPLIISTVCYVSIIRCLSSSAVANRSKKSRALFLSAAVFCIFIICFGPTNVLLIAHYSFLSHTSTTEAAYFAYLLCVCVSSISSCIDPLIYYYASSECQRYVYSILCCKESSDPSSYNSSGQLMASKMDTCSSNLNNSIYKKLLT

B1: SF(Cha)LR-NH2 (peptide)
peptide: SF[Cha]LR-NH2
modifications: N-terminus assumed
SMILES: CC(C)C[C@H](NC(=O)[C@H](CC1CCCCC1)NC(=O)[C@H](Cc1ccccc1)NC(=O)[C@@H](N)CO)C(=O)N[C@@H](CCCNC(=N)N)C(N)=O
B2: SF(Cha) (Cha)RN-NH2 (peptide)
peptide: SF[Cha][Cha]RN-NH2
modifications: N-terminus assumed
SMILES: N=C(N)NCCC[C@H](NC(=O)[C@H](CC1CCCCC1)NC(=O)[C@H](CC1CCCCC1)NC(=O)[C@H](Cc1ccccc1)NC(=O)[C@@H](N)CO)C(=O)N[C@@H](CC(N)=O)C(N)=O
B3: SF(Tic)LRN-NH2 (peptide)
peptide: SF[Tic]LRN-NH2
modifications: N-terminus assumed
SMILES: CC(C)C[C@H](NC(=O)[C@@H]1Cc2ccccc2CN1C(=O)[C@H](Cc1ccccc1)NC(=O)[C@@H](N)CO)C(=O)N[C@@H](CCCNC(=N)N)C(=O)N[C@@H](CC(N)=O)C(N)=O
B4: SF(Phg)LR-NH2 (peptide)
peptide: SF[Phg]LR-NH2
modifications: N-terminus assumed
SMILES: CC(C)C[C@H](NC(=O)[C@@H](NC(=O)[C@H](Cc1ccccc1)NC(=O)[C@@H](N)CO)c1ccccc1)C(=O)N[C@@H](CCCNC(=N)N)C(N)=O
B5: (S-MeCys)FLLRN-NH2 (peptide)
peptide: [SMeCys]FLLRN-NH2
modifications: N-terminus assumed
SMILES: CSC[C@H](N)C(=O)N[C@@H](Cc1ccccc1)C(=O)N[C@@H](CC(C)C)C(=O)N[C@@H](CC(C)C)C(=O)N[C@@H](CCCNC(=N)N)C(=O)N[C@@H](CC(N)=O)C(N)=O
B6: SFL(Cha)R-NH2 (peptide)
peptide: SFL[Cha]R-NH2
modifications: N-terminus assumed
SMILES: CC(C)C[C@H](NC(=O)[C@H](Cc1ccccc1)NC(=O)[C@@H](N)CO)C(=O)N[C@@H](CC1CCCCC1)C(=O)N[C@@H](CCCNC(=N)N)C(N)=O
B7: SF(Cha)LRN-NH2 (peptide)
peptide: SF[Cha]LRN-NH2
modifications: N-terminus assumed
SMILES: CC(C)C[C@H](NC(=O)[C@H](CC1CCCCC1)NC(=O)[C@H](Cc1ccccc1)NC(=O)[C@@H](N)CO)C(=O)N[C@@H](CCCNC(=N)N)C(=O)N[C@@H](CC(N)=O)C(N)=O

Biological target: T1, human thrombin receptor
Assay: cell-based or functional assay

Binder | EC50 (concentration required to elicit a 50% maximal aggregation), platelet aggregation
TFLLRNPNDK | 8.5 µM
XFLLR (desaminoSer at the N-terminus; C-terminal amide (NH2)) [[desaminoSer]-FLLR-NH2] | 920 µM
SFWLR-NH2 [SFWLR-NH2] | 24 µM
SFLLA-NH2 [SFLLA-NH2] | 137 µM
SFXLR (N-MeLeu at position 3; C-terminal amide (NH2)) [SF(N-MeLeu)LR-NH2] | > 1000 µM
Ac-FLLRNPNDKYEPF [Ac-FLLRNPNDKYEPF] | 796 µM
SFLLRNP-NH2 [SFLLRNP-NH2] | 4.5 µM
SFLLRN-NH2 [SFLLRN-NH2] | 1.6 µM
B1 | 1.5 µM
SFLIRN-NH2 [SFLIRN-NH2] | 20.5 µM
{3‑Tetrahydrofuranoyl}-FLLR-NH2 [[3-Tetrahydrofuranoyl]-FLLR-NH2] | 1000 µM
SFLLRNPNDKYE | 6.6 µM
SFLL-NH2 [SFLL-NH2] | 146 µM
SFLLX (D-Arg at position 5; C-terminal amide (NH2)) [SFLL(D-Arg)-NH2] | 594 µM
B2 | 1.1 µM
GFLLR-NH2 [GFLLRNH2] | 7.3 µM
CFLLR-NH2 [CFLLR-NH2] | 193 µM
SFRLR-NH2 [SFRLR-NH2] | 7.4 µM
B3 | 11.3 µM
B4 | 6.7 µM
B5 | 129 µM
SFLLRNPNDK | 6.3 µM
{2‑MeButyryl}-FLLR-NH2 [(2-MeButyryl]-FLLR-NH2] | 1500 µM
SF[Cha][Cha]LRNPNDK [SF(Cha) (Cha)LRNPNDK] | 5.4 µM
SXLLR (Cha at position 2; C-terminal amide (NH2)) [S(Cha)LLR-NH2] | 140 µM

Binder | EC50 (concentration required to elicit a 50% maximal aggregation), platelet aggregation
SFFLR-NH2 [SFFLR-NH2] | 3.4 µM
desaminoAsn-FLLR-NH2 [[desaminoAsn]-FLLR-NH2] | 237 µM
SFGLR-NH2 [SFGLR-NH2] | 95 µM
SFILR-NH2 [SFILR-NH2] | 5.9 µM
SFLFR-NH2 [SFLFR-NH2] | 17 µM
SFL[Nal]RN-NH2 (not fully specified; printed as SFL(Nal)RN-NH2) [SFL(Nal)RN-NH2] | 7.5 µM
XFLLR (b-Ala at position 1; C-terminal amide (NH2)) [[b-Ala]-FLLR-NH2] | 99 µM
AFLLRNPNDKYE | 12.9 µM
SFPLR-NH2 [SFPLR-NH2] | 22 µM
SXLLR (OMeTyr at position 2; C-terminal amide (NH2)) [S(OMeTyr)LLR-NH2] | 46 µM
SFHLRN-NH2 [SFHLRN-NH2] | 40.5 µM
SFYLRN-NH2 [SFYLRN-NH2] | 4.9 µM
SFALRNPNDKYE | 20.7 µM
SXLLR (Nal at position 2; C-terminal amide (NH2)) [S(Nal)LLR-NH2] | 42 µM
SFLLR-NH2 [SFLLR-NH2] | 7.5 µM
SXLLR (Thi at position 2; C-terminal amide (NH2)) [S(Thi)LLR-NH2] | 7.6 µM
SFFLRN-NH2 [SFFLRN-NH2] | 1.5 µM
B6 | 6 µM
SYLLR-NH2 [SYLLR-NH2] | 288 µM
SFLLRNPN | 7.6 µM
SFLAR-NH2 [SFLAR-NH2] | 146 µM
B7 | 1.3 µM
SFLQRN-NH2 [SFLQRN-NH2] | 61 µM
SFLRR-NH2 [SFLRR-NH2] | 1000 µM
